Measurements reported in patent US20230167182A1 (BIOSION, published 2023).

T1: human IL6R expressed on cell surface (human, UniProt P08887 20-468)
T1 construct: whole, on cells; also called cell surface human IL6R; U266 cells expressing human IL6R
T1 sequence (looked up): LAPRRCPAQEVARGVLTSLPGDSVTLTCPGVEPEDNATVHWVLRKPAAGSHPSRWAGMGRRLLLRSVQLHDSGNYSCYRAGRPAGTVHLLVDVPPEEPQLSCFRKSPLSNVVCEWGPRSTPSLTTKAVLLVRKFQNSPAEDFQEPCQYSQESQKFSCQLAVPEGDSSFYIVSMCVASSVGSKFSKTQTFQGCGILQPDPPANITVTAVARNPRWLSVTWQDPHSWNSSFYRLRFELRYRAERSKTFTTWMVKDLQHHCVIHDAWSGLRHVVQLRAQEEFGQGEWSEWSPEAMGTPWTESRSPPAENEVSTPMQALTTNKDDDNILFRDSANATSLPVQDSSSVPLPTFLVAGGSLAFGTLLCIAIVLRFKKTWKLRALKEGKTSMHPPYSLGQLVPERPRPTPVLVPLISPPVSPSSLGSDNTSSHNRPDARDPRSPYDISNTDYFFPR

T2: macaca IL6R-his protein (macaca mulatta)
T2 chain: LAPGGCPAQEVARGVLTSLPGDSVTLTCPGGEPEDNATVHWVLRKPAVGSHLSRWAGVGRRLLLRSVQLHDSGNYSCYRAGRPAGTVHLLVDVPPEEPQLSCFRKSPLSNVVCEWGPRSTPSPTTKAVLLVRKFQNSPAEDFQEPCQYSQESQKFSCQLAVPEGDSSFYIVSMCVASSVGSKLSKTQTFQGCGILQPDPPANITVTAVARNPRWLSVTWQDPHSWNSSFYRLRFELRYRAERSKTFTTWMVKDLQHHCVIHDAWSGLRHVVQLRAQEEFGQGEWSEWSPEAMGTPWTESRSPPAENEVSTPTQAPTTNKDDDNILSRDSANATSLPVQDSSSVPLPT

T3: recombinant human IL6R-his (human, UniProt P08887 20-365)
T3 construct: In house made; the entry includes the C-terminal His tag; also called human IL6R-his protein
T3 sequence: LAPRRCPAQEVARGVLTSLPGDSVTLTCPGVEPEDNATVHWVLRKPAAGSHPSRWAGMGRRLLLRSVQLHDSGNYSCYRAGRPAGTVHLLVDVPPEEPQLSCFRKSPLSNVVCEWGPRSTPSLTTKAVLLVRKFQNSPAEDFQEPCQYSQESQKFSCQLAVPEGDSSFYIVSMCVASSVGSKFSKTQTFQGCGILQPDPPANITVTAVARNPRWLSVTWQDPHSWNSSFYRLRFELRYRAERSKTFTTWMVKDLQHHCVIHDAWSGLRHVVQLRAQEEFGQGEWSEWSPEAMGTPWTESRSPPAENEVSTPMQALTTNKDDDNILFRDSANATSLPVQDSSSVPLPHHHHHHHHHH


Key:
human IL6R-Fc protein [1] = target: T4, human IL6R-Fc protein (human, biotin-labeled in the ELISAs (sites not given)); assay: benchmark blocking ELISA: antibody pre-incubated with biotin-labeled human IL6R-Fc, added to plate-coated Tocilizumab (competitor: Tocilizumab)
T4 construct: In house made; also called biotin-labeled human IL6R-Fc protein
Experimental: ELISA plates were washed once with wash buffer (PBS+0.05% v/v Tween-20, PBST) and then blocked with 200 μl/well blocking buffer (5% w/v non-fatty milk in PBST) overnight at 4° C.
The next day, the anti-IL6R antibodies of the disclosure or controls were diluted with biotin labeled human IL6R-Fc protein (SEQ ID NO: 43, 13.6 ng/ml in 2.5% w/v non-fatty milk in PBST), starting at 100 nM with a 5-fold serial dilution, and incubated at room temperature for 40 minutes. […] After incubation at 37° C. for 40 minutes, plates were washed 4 times using wash buffer. Then streptavidin conjugated HRP was added, and the plates were incubated for 40 minutes at 37° C. The plates were finally washed using wash buffer, and added with TMB. The reaction was stopped using 1M […], and the absorbance was read on a microplate reader using dual wavelength mode with 450 nm for TMB and 630 nm as the reference wavelength. The OD (450-630) values were plotted against antibody concentration. Data was analyzed using Graphpad Prism software and IC₅₀ values were reported.

[2] = target: T1, human IL6R expressed on cell surface; assay: cell-based binding FACS on U266 cells
Experimental: The binding activities of the mouse anti-IL6R antibodies to IL6R expressed on cell surface were tested by flow cytometry (FACS). Briefly, human myeloma cells U266 (ATCC® TIB-196™) were harvested from cell culture flasks, washed twice and resuspended in phosphate buffered saline (PBS) containing 2% v/v Fetal Bovine Serum (FACS buffer). 2×10⁵ U266 cells per well were incubated in 96 well-plates with 100 μl of the anti-IL6R antibodies or controls at various concentrations (starting at 40 nM with a 3-fold serial dilution in FACS buffer) for 40 minutes on ice. Cells were washed twice with FACS buffer, and added with 100 μL/well R-Phycoerythrin AffiniPure F(ab′)₂ Fragment Goat Anti-Mouse IgG (H+L) (1:1000 dilution in FACS buffer, Jackson ImmunoResearch Laboratories, Inc., Cat #115-116-146). Following an incubation of 40 minutes at 4° C. in dark, cells were washed three times and resuspended in FACS buffer. Fluorescence was measured using a Becton Dickinson FACS Canto II-HTS equipment. Data was analyzed using Graphpad Prism software and EC₅₀ values were reported.

macaca IL6R-his protein = target: T2, macaca IL6R-his protein; assay: SPR Biacore; purified antibody captured by anti-human IgG on CM5, antigen in flow
[3] = target: T3, recombinant human IL6R-his; assay: as above
human IL6R-Fc protein [4] = target: T4, human IL6R-Fc protein; assay: ligand blocking ELISA: antibody pre-incubated with biotin-labeled human IL6R-Fc, added to plate-coated human IL6 (blocked ligand: human IL6)
Experimental: The next day, anti-IL6R antibodies or controls were diluted with biotin labeled human IL6R-Fc protein (prepared in house, SEQ ID NO: 43, 39.5 ng/ml in 2.5% w/v non-fatty milk in PBST), starting at 100 nM with a 4-fold serial dilution, and incubated at room temperature for 40 minutes. […] Plates were washed for 4 times using wash buffer, and added and incubated with 100 μl/well of streptavidin conjugated HRP (1:10000 dilution in PBST buffer, Jackson ImmunoResearch Laboratories, Inc., Cat #016-030-084) for 40 minutes at 37° C. Plates were washed again using wash buffer. Finally, TMB was added and the reaction was stopped using 1M H₂SO₄. The absorbance was read on a microplate reader using dual wavelength mode with 450 nm for TMB and 630 nm as the reference wavelength, and then the OD (450-630) values were plotted against antibody concentration. Data was analyzed using Graphpad Prism software and IC₅₀ values were reported.

Row | Binder | IC50 (human IL6R-Fc protein [1]) | EC50 [2] | Kd (macaca IL6R-his protein) | Kd [3] | IC50 (human IL6R-Fc protein [4]) | koff (macaca IL6R-his protein) | kon (macaca IL6R-his protein) | koff [3] | kon [3]
1 | mouse anti-IL6R monoclonal antibody 1F7 (antibody, V domains shown, Mouse hybridoma mAb) VH: QVQLQQPGAELVKPGASVKLSCKASDYTFTSYWMHWVKQRPGQGLEWIGEINPSNGRTNYNEKFKNKATLTVDKSSSTAYVQLYSLTSEDSAVYYCARLSIHYVFDYWGQGTTLTVSS VL: ELVLTQSPTTMAASPGEKITFTCSASSSISSNYLHWYQQKPGFSPKLLISGTSNLASGVPPRFSGSGSGTSYSLTIVTMEAEDVATYYCQQGSGIPFTFGSGTKLEIK | 311 pM | – | – | – | – | – | – | – | –
2 | Tocilizumab (antibody, human IgG1, kappa, V domains shown, In house made; also called benchmark; Actemra) VH: QVQLQESGPGLVRPSQTLSLTCTVSGYSITSDHAWSWVRQPPGRGLEWIGYISYSGITTYNPSLKSRVTMLRDTSKNQFSLRLSSVTAADTAVYYCARSLARTTAMDYWGQGSLVTVSS VL: DIQMTQSPSSLSASVGDRVTITCRASQDISSYLNWYQQKPGKAPKLLIYYTSRLHSGVPSRFSGSGSGTDFTFTISSLQPEDIATYYCQQGNTLPYTFGQGTKVEIKR | 2580 pM | 1700 pM | 9160 pM | 7420 pM | 2330 pM | – | – | – | –
3 | Chimeric 1H7 (antibody, human IgG1, kappa, V domains shown, Mouse variable regions on human IgG1 / human kappa constant regions; also called chimeric antibody 1H7) VH: QVQLQQPGTELVKPGASVKLSCKASGYTFTNYWMHWVKQRPGQGLDWIGEINPTNGRTNYNENFKSKATLTVDKSSSTAYMQLSSLTSEDSAVYYCARLNTHYVFDSWGQGTTLTLSS VL: EIVLTQSPTTLAASPGEKITFTCSVSSSISSNYLHWYQQKPGFSPKLLISRTSTLASGVPARFSGSGSGTSYSLTIGTMEAEDVATYYCQQGSGIPFTFGSGTKLELKR | – | – | 1180 pM | 850 pM | – | 0.000112 s⁻¹ | 94800 M⁻¹ s⁻¹ | 0.000112 s⁻¹ | 132000 M⁻¹ s⁻¹
4 | humanized antibody hu1H7-V5 (antibody, human IgG1, kappa, V domains shown, Human IgG1 / kappa) VH: QVQLVQSGAEVKKPGASVKVSCKASGYTFTNYWMHWVRQAPGQGLEWIGEINPTNGRTNYNENFKSRVTLTVDTSTSTVYMELSSLRSEDTAVYYCARLNTHYVFDSWGQGTLVTVSS VL: EIVLTQSPGTLSLSPGERATLSCSVSSSISSNYLHWYQQKPGLSPRLLISRTSTLASGIPARFSGSGSGTEYTLTISRMQSEDFAVYYCQQGSGIPFTFGQGTKLEIKR | – | – | 1580 pM | 773 pM | – | 0.00012 s⁻¹ | 75800 M⁻¹ s⁻¹ | 0.000112 s⁻¹ | 145000 M⁻¹ s⁻¹
5 | mouse anti-IL6R monoclonal antibody 1D4 (antibody, V domains shown, Mouse hybridoma mAb) VH: QVQLQQPGAELVKPGASVKLSCKASGYTFTSYWMHWVKVRPGQGLEWIGEINPTNGRTNYNEDFKSKATLTVNSSSSTAYMQLSSLTSEDSAVYYCARLNTHYVFDYWGQGTTLTVSS VL: EIVLTQSPTILAASPGEKITFTCSVSSSISSNYLHWYQQKPGFSPKLLIYRTSNLASGVPARFSGSGSGTSYSLTIGTMEAEDVATYYCQQGSGIPFTFGSGTKLEIK | 466 pM | – | – | – | – | – | – | – | –
6 | mouse anti-IL6R monoclonal antibody 1B5 (antibody, V domains shown, Mouse hybridoma mAb) VH: QVQLQQPGAELVKPGASVKLSCKASGYTFTSYWMHWVKQRPGQGLEWIGEINPSNGRTNYNENFKSKATLTVDKSSSTAYMQLSSLTSEDSAVYYCARLNTHYVFDYWGQGTTLTVSS VL: EIVLTQSPTILAASPGEKITFTCSVSSSISSNYLHWYQQKPGFSPKLLIYRTSNLASGVPARFSGSGSGTSYSLTIGTMEAEDVATYYCQQGSGIPFTFGSGTKLEIK | – | 204 pM | – | – | 697 pM | – | – | – | –
7 | mouse anti-IL6R monoclonal antibody 1A3 (antibody, V domains shown, Mouse hybridoma mAb purified on Protein A) VH: QVQLQQPGAELVKPGASVKLSCKASGYTFTSYWMHWVKQRPAQGLEWIGEINPSNGRTNFNEKFKTKATLTVDKSSNTAYMQLSSLTSEDSAVYSCLRLNTHYVFDYWGQGTTLTVSS VL: EIVLTQSPTTMAASPGEKITITCSASSSISSNYLHWYQQKPGFSPKLLISRTSNLASGVPTRFSGSGSGTSYSLTIGTMEAGDVATYYCQQGSGIPFTFGSGTKLEIK | – | 229 pM | – | – | 807 pM | – | – | – | –
